Laboratory results: PMC6346101 (2019)

Biological target: Biotinylated D/NP_(TAIL) fused to a biotinylation motif (Influenza D virus, strain …, UniProt A0A0E3VZU8 505-552)
Assay: SPR

B1: human importin-α7 without its IBB domain (amino-acids 58 to 536) (domain or fragment)
chain: not shown
koff: 0.09 s⁻¹
